In PMC10136361, “Inhibition Analysis and High-Resolution Crystal Structure of Mus musculus Glutathione Transferase P1-1” (Biomolecules, 2023):

Substrate: N[C@@H](CCC(=O)N[C@@H](CS)C(=O)NCC(=O)O)C(=O)O
Test: purified protein
Conditions: G-site

B1: MmGSTP1-1 (Mus musculus) (protein)
chain: PPYTIVYFPVRGRCEAMRMLLADQGQSWKEEVVTIDTWMQGLLKPTCLYGQLPKFEDGDLTLYQSNAILRHLGRSLGLYGKNQREAAQMDMVNDGVEDLRGKYVTLIYTNYENGKNDYVKALPGHLKPFETLLSQNQGGKAFIVGDQISFADYNLLDLLLIHQVLAPGCLDNFPLLSAYVARLSARPKIKAFLSSPEHVNRPINGNGKQ
  Km: 0.22 ± 0.01 mM
